Patent US20150011567

How the values were obtained:
[1] = tested on: biotinylated H4-derived unphosphorylated peptide TVTAMDVVYALKRQGRT
[2] = tested on: biotinylated human histone H2B derived peptide KRSRKESYSVYVYKVL
[3] = tested on: purified human H3 recombinant protein (NEB)
[4] = tested on: purified human H2A recombinant protein (NEB)
[5] = tested on: purified human H2B recombinant protein (NEB)
[6] = molecular target: purified human H4 recombinant protein (NEB) (UniProt P62805)

Chain of recombinant GST-WEE1 protein (Invitrogen) (chain, as listed by the source): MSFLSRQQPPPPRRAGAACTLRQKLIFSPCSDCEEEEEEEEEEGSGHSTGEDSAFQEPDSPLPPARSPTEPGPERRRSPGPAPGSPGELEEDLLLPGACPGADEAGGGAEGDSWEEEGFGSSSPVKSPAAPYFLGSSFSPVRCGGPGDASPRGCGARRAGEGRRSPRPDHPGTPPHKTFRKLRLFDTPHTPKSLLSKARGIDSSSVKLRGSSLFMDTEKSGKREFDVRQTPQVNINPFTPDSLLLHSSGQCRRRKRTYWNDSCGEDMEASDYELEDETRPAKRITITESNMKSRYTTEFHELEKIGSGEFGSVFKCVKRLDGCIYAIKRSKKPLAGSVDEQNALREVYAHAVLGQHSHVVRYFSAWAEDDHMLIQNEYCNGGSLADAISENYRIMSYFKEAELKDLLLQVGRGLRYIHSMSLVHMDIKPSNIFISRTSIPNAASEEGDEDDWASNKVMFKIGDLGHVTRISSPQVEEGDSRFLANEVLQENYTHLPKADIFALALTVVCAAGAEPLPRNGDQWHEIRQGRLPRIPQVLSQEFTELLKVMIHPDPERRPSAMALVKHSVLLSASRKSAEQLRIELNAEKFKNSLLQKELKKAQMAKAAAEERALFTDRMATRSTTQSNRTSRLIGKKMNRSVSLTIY

purified WEE1 protein (Examples 5 and 7)
in vitro kinase assay on plate-bound peptide, ELISA with pY88-H4 antibodies [1]: Incubation of H4 peptide with WEE1 and Ack1 protein resulted in robust H4 Tyr88-phosphorylation | Peptide Immunosandwich Assay (PIA), H2B Tyr37-phosphorylation read at 450 nm [2]: Purified WEE1 exhibited robust H2B Tyr37-phosphorylation

recombinant GST-WEE1 protein (Invitrogen)
in vitro kinase assay, immunoblot with pTyr37-H2B antibody [3]: failed to phosphorylate other three core histones, H2A, H3 and H4 | in vitro kinase assay, immunoblot with pTyr37-H2B antibody [4]: failed to phosphorylate other three core histones, H2A, H3 and H4 | in vitro kinase assay, immunoblot with pTyr37-H2B antibody [5]: When purified WEE1 and H2B were incubated, H2B was Tyr37-phosphorylated | in vitro kinase assay, immunoblot with pTyr37-H2B antibody [6]: failed to phosphorylate other three core histones, H2A, H3 and H4
